The labels stand for the following.
B1: dAb clone 9 fused to Fc (Fc fusion)
chain: QVQLQESGGGLVQAGDSLRLSCAASGRTSDTMTIGWFRQAPGKEREFVASINWSGSTTYYADSVNERFTISRDDAKNTVYLQMNSLKPEDTAVYYCAAKRGVWTIKSAAADFASWGQGTQVTVSS
notes: also called clone C9 fused to Fc
B2: 74649 (Fc fusion)
scFv-Fc: QAQLVESGGALVQPGRSLRLSCAASGFTFRNYAMHWVRQAPATGLQWLAVITSDGRNKFYADSVKGRFTISREDSKNTLYLQMDSLRGEDTAVYYCVTQRDNSRDYFPHYFHDMDVWGQGTTVAVSSDVVLTQSPLSLPVTLGQPASISCRSSQSLVYSDGDTYLNWFQQRPGQSPRRLIYQVSNRDSGVPDRFSGSGSGTDFTLKISRVEAEDVGVYYCMQGSHWPPTFGQGTKVEIK
B3: 74655 (Fc fusion)
scFv-Fc: QVQLVQSGAEVKKPGASVKVSCKASGYTFTTYGISWVRQAPGQGLEWMGWISAYNGNTNYAQKLQGRVTMTTDTSTSTAYMELRSLRSDDTAVYYCARDDLSDYGEWLGPDYWGQGTLVTVSSQPGLTQPPSASGTPGQRVTISCSGSRSNIGGNTVNWYQHVPGTAPKLLIYSNNQRPSGVPDRFSGSKSGTSASLAISGLRSEDEAEYYCATWEDSLSGYVFGPGTKVTVL
B4: 74652 (Fc fusion)
scFv-Fc: QVQLLESGAELVKPGASVKVSCKASGYTFTSYWIHWVKQRPGQGLEWIGEINPSNGRTNYNGNFESKATLTVDKSSNTAYMHLSSLTYEDSAVYHCTRLDYWGQGTTLTVSSELVMTQSPASLSVITGKKVTIRCISNTDIDDDLNWSQLKAGEPPKLLISEGNIFSPGVPSRFSSSGNGTDFVFTIENTLSEDVANNYCFQSDNMPFTFGSGTKLEIK
B5: 74662 (Fc fusion)
scFv-Fc: EVQLVESGGGLVQPGGSLRLSCAASGFTFSGYPMHWVRQAPGKGLEWVAVISYDGSNKYYADSVKGRFTISRDNSKNTLYLQMNSLRAEDTAVYYCAKDGSPRTPSFDYWGQGTLVTVLEDIQMTQSPHSLSASVGDRVTITCRASQGISNYLAWYQQKPGKVPKLLIYAASTLQSGVPSRFSGSGSGTDFTLTISSLQPEDVGVYYCQQRFRTPVTFGQGTKLEIK
B6: 74653 (Fc fusion)
scFv-Fc: QVQLQQPGAELVKPGASVKVSCKASGYTFTNYWIHWVKQRPGQGLEWIGEINPGNGRTNYNGNFMNKATLTVDKSSNTAYMQLSSLTSEDSAVYHCARLDYWGQGTTLTVSSELVMTQSPASLSVATGKKVTIRCISSTDIDDDMNWYQQKAGKPPKLLISEGNIFSPGVPSRFSSSGNGTDFVFTVENTLSEDVADNYCLQSDNMPFTFGSGTKLGIK
B7: 74648 (Fc fusion)
scFv-Fc: EVQLVQSGGGVVQPGKSLRLSCAASGFAFSSYAMHWVRQAPGKGLEWVAVISYDGSNKYYADSVKGRFTISRDNSKNTLYLQMNSLRAEDTAVYYCARDRSYYLDYWGQGTLVTVSSETTLTQSPATLSLSPGERATLSCRASQSVRSNLAWYQQKPGQAPRPLIYDASTRATGIPDRFSGSGSGTDFTLTISRLEPEDFAVYYCQQRSNWPPTFGQGTKVEVK
B8: 74651 (Fc fusion)
scFv-Fc: EVQLEESGTVLARPGASVKMSCKASGYTFTTYRMHWIKQRPGQGLEWIGAIYPGNSDTTYNQKFKDKAKLTAVTSTSSAYMELSSLTNEDSAVYFCTREGIPQLLRTLDYWGQGTSVTVSSDILMTQSPSSLSASLGERVSLTCRASQEISGYLSWLQEKPDGTIKRLIYAASTLDSGVPKRFSGSRSGSDYSLTISSLESEDFADYYCLQYVSYPWTFGGGTKLEIK
B9: 74667 (Fc fusion)
scFv-Fc: QVQLVQSGAEVKKPGESLKISCKGSGYSFANHWIAWVRQMPGKGLEWMGIFNPDNSDTTYSPSFQGQVTFSADKSISIAYLHWSSLKASDTAIYYCARLALSDGWLHDFWGQGTLVTVSSEIVMTQSPLSLPVTLGQPASISCKSSQSLVDTNGNTYLIWFHQRPGQSPRRLIYQVSKRDSGVPDRFSGSGSGTDFTLKISRVEAEDVGVYFCMQGTYRPPTLGQGTKVEIK
B10: 74650 (Fc fusion)
scFv-Fc: QVQLQQSGAEVKKPGSSVKVSCKASGGTFSSYTISWVRQAPGQGLEWMGGITPILGIANYAQKFQGRVTITTDESTSTAYMELSSLRSEDTAVYYCARDTVMGGMDVWGQGTTVTVSSSYELTQPPSVSVAPGKTARITCGGNNIGSKSVHWYQQKPGQAPVLVVYDDSDRPSGIPERFSGSNSGNTATLTISRVEAGDEADYYCQVWDSSSDYVFGTGTKVTVL

The target in the first test is T1, SARS-CoV-2 Spike protein, S1 subunit (recombinant) (SARS-CoV-2, UniProt P0DTC2 16-681). Nature of the test: ELISA, coated SARS-CoV-2 S1; x axis Log Dilution factor, no concentration. Background: An ELISA detects its analyte on a solid surface through an enzyme-linked reagent.
For the molecule B1, the binding result was “binds”.

In a further test the target is T1, SARS-CoV-2 Spike protein, S1 subunit …. Nature of the test: ELISA, scFv-Fc supernatant on coated SARS-CoV-2 S1; cut-off 3x background.
Turning to B2, the binding result is listed as “no binding (tested: approximately 10 µg/ml)”.
On to B3, for which the binding result is on record as “no binding (tested: approximately 10 µg/ml)”.
Consider B4, for which the binding result is listed as “no binding (tested: approximately 10 µg/ml)”.
Regarding B5, the binding result is “no binding (tested: approximately 10 µg/ml)”.
In the case of B6, the binding result is reported as “no binding (tested: approximately 10 µg/ml)”.
Regarding B7, the binding result is recorded as “no binding (tested: approximately 10 µg/ml)”.
On to B8, for which the binding result was “no binding (tested: approximately 10 µg/ml)”.
Turning to B9, the binding result is listed as “no binding (tested: approximately 10 µg/ml)”.
For B10, the binding result was “no binding (tested: approximately 10 µg/ml)”.

In a further test the target is SARS-CoV S1 spike protein domain (recombinant) (SARS-CoV, UniProt P59594 14-667). In words: ELISA on coated SARS-CoV S1.
Take B1: the binding result is “no binding”.

The values are drawn from US20230293647A1 (AUTOLUS, published 2023).
